Test results: US20180135015A1

Biological target: NKG2D ligands (NKG2DL) on target cells
Assay: cell-based or functional assay

- target cell apoptosis (U-2 OS), apoptotic cells/0.07 mm^2 (apoptotic cells/0.07 mm^2): 11.7
Substance: NKG2D-DAP10-CD3zeta chimeric receptor complex (from UniProt Q9UBK5 19-93)
